In patent US20030166027A1, “Compositions, test kits and methods for detecting helicobacter pylori” (priority 2002, published 2003):

Legend:
[1] = tested on: specific serum IgG antibodies in sera from patients diagnosed with a H. pylori infection; experiment: Quantitative Western-blot analysis (integrated optical density) of patient sera on H. pylori whole cell lysate antigens; type: binding, human; conditions: for average titer of specific antibodies / reduction of average titer: average of all strains (FIG. 4)
[2] = tested on: sera from H. pylori infected patients; experiment: Immunoblot analysis of whole cell lysates with sera from H. pylori infected patients; type: binding, human; conditions: one serum of an infected patient (HS#0 12, table 1)
Method: The protein content of the bacterial lysates was determined by the method according to Lowry (Lowry et al., 1951) with bovine serum albumin as a standard. The lysates were dried in a speedVac concentrator. Afterwards the pellets were suspended in gel sample buffer (4% SDS, 12% glycerin, 4% β-mercaptoethanol, 0.01% Serva Blue G250 in 50 mM Tris/HCl pH 6.8) and boiled for 10 min. H. pylori and C. jejuni lysates were separated on 1.0 or 1.5 mm 7.5-16.5% SDS-tricine gradient gels (Schaegger and v. Jagow, 1987). Therefore a 7.5% and a 16.5% acrylamide solution for the separating gel and a 4% acrylamide solution for the stacking gel were prepared according to the scheme presented in table 3. Using a gradient-mixer the gel was poured slowly, but with continuous flow between the glass plates of the gel-sandwich. The separating gel was overlaid with deonized H2O and allowed to polymerize for 1 hr. Afterwards the water was removed, APS and TEMED was added to the stacking gel solution that was poured on top of the separating gel. A comb with the appropriate number of sample pockets was inserted and removed after polymerisation for 1 hr. The gel-sandwich was placed in an electrophoresis chamber half filled with bottom running buffer (0.2 M Tris-HCI, pH 8.9). […] The protein pattern after electrophoresis was determined by Silver staining (Heukeshoven, 1985) or Coomassie blue staining. […]

[3] = antigens from Hp02 (FIG. 3), sera 3 months post therapy
[4] = antigens from Hp02 (FIG. 3), sera 5 months post therapy
[5] = antigens from Hp02 (FIG. 3), sera before therapy, set as 100%
[6] = antigens from Hp08 (FIG. 2), sera 3 months post therapy
[7] = antigens from Hp08 (FIG. 2), sera 5 months post therapy
[8] = antigens from Hp08 (FIG. 2), sera before therapy, set as 100%
[9] = antigens from Hp504, first experiment (FIG. 1A), sera 3 months post therapy
[10] = antigens from Hp504, first experiment (FIG. 1A), sera 5 months post therapy
[11] = antigens from Hp504, first experiment (FIG. 1A), sera of 9 patients before therapy, set as 100%
[12] = antigens from Hp504, second experiment (FIG. 1B), sera 3 months post therapy
[13] = antigens from Hp504, second experiment (FIG. 1B), sera 5 months post therapy
[14] = antigens from Hp504, second experiment (FIG. 1B), sera before therapy, set as 100%
[15] = 3 months after eradication treatment
[16] = 5 months after end of treatment

B1: Omp18-peptido-glycan associated lipoprotein precursor (protein)
chain: MKRSSVFSFLVAFLLVAGCSHKMDNKTVAGDVSAKTVQTAPVTTEPAPEKEEPKQEPAPVVEEKPAVESGTIIASIYFDFDKYEIKESDQETLDEIVQKAKENHMQVLLEGNTDEFGSSEYNQALGVKRTLSVKNALVIKGVEKDMIKTISFGETKPKCAQKTRECYKENRRVDVKLMK
notes: 30 kd H. pylori antigen band in whole cell lysate, identified as Omp18
[1]; [3]
  % IOD: 50.71 +/− 11.48%
[1]; [4]
  % IOD: 21.56 +/− 6.44%
[1]; [5]
  % IOD: 100%
[1]; [6]
  % IOD: 62.53 +/− 10.32%
[1]; [7]
  % IOD: 40.77 +/− 4.45%
[1]; [8]
  % IOD: 100%
[1]; [9]
  % IOD: 32.08 +/− 6.48%
[1]; [10]
  % IOD: 20.71 +/− 12.72%
[1]; [11]
  % IOD: 100%
[1]; [12]
  % IOD: 53.58%
[1]; [13]
  % IOD: 41.28%
[1]; [14]
  % IOD: 100%
[1]; [15]
  average titer of specific antibodies: 49.73%
  reduction of average titer: 50.27%
[1]; [16]
  average titer of specific antibodies: 31.08%
  reduction of average titer: 68.92%

B2: RPL7/L12 50S ribosomal protein L7/L12 (protein)
chain: MNISVNPYLMAVVFVVFVLLLWAMNVWVYRPLLAFMDNRQAEIKDSLAKIKTDNAQSVEIGHQIEALLKEAAEKRREIIAEAIQKATESYDAVIKQKENELNQEFEAFAKQLQNEKQALKEQLQAQMPVFEDELNKRVAMGLGS
notes: 15 kd H. pylori antigen band in whole cell lysate, identified as RPL7/L12
[1]; [3]
  % IOD: 36.29 +/− 14.99%
[1]; [4]
  % IOD: 11.39 +/− 4.27%
[1]; [5]
  % IOD: 100%
[1]; [6]
  % IOD: 28.60 +/− 13.85%
[1]; [7]
  % IOD: 9.96 +/− 4.99%
[1]; [8]
  % IOD: 100%
[1]; [9]
  % IOD: 37.86 +/− 8.98%
[1]; [10]
  % IOD: 15.37 +/− 6.68%
[1]; [11]
  % IOD: 100%
[1]; [12]
  % IOD: 46.17 +/− 16.87%
[1]; [13]
  % IOD: 19.77 +/− 11.11%
[1]; [14]
  % IOD: 100%
[1]; [15]
  average titer of specific antibodies: 31.61%
  reduction of average titer: 68.39%
[1]; [16]
  average titer of specific antibodies: 14.12%
  reduction of average titer: 85.88%
[2]
  reaction with serum HS#0 12: did not react

B3: HP0596 a hypothetical protein (protein)
chain: MLEKSFLKSKQLFLCGLGVLMLQACTCPNTSQRNSFLQDVPYWMLQNRSEYITQGVDSSHIVDGKKTEEIEKIATKRATIRVAQNIVHKLKEAYLSKTNRIKQKITNEMFIQMTQPIYDSLMNVDRLGIYINPNNEEVFALVRARGFDKDALSEGLHKMSLDNQAVSILVAKVEEIFKDSVNYGDVKVPIAM
notes: 23 kd H. pylori antigen band in whole cell lysate, identified as HP0596
[1]; [3]
  % IOD: 35.86 +/− 11.88%
[1]; [4]
  % IOD: 13.51 +/− 5.02%
[1]; [5]
  % IOD: 100%
[1]; [6]
  % IOD: 23.05 +/− 7.53%
[1]; [7]
  % IOD: 11.36 +/− 4.45%
[1]; [8]
  % IOD: 100%
[1]; [9]
  % IOD: 33.88 +/− 10.59%
[1]; [10]
  % IOD: 23.81 +/− 7.83%
[1]; [11]
  % IOD: 100%
[1]; [12]
  % IOD: 52.37 +/− 12.72%
[1]; [13]
  % IOD: 34.77 +/− 9.61%
[1]; [14]
  % IOD: 100%
[1]; [15]
  average titer of specific antibodies: 36.29%
  reduction of average titer: 63.71%
[1]; [16]
  average titer of specific antibodies: 28.87%
  reduction of average titer: 79.13%

B4: HpaA-neuraminyl-lactose-hemagglutinin precursor (protein)
chain: MKKGSLAIVLGSLLASGAFYTALADGMPAKQQHNNTGESVELHFHYPIKGKQEPKNSHLVVLIEPKIEINKVIPESYQKEFEKSLFLQLSSFLERKGYSVSQFKDASEIPQDIKEKALLVLRMDGNVAILEDIVEESDALSEEKVIDMSSGYLNLNFVEPKSEDIIHSFGIDVSKIKAVIERVELRRTNSGGFVPKTFVHRIKETDHDQAIRKIMNQAYHKVMVHITKELSKKHMEHYEKVSSEMKKRK
notes: 32 kd H. pylori antigen band in whole cell lysate, identified as HpaA
[1]; [3]
  % IOD: 32.30 +/− 13.97%
[1]; [4]
  % IOD: 8.70 +/− 3.2%
[1]; [5]
  % IOD: 100%
[1]; [6]
  % IOD: 48.11 +/− 8.15%
[1]; [7]
  % IOD: 21.06 +/− 8.01%
[1]; [8]
  % IOD: 100%
[1]; [9]
  % IOD: 41.61 +/− 9.25%
[1]; [10]
  % IOD: 15.15 +/− 4.20%
[1]; [11]
  % IOD: 100%
[1]; [12]
  % IOD: 32.15%
[1]; [13]
  % IOD: 27.2%
[1]; [14]
  % IOD: 100%
[1]; [15]
  average titer of specific antibodies: 38.5%
  reduction of average titer: 61.5%
[1]; [16]
  average titer of specific antibodies: 18.03%
  reduction of average titer: 81.97%
